Source: patent US20180362645A1 (Amgen, published 2018)
Where a chain is given by its changes, count along the chain named. Where “and” joins values, the source holds several entries; their conditions need not be identical. Identical values can stand only once. Where no end group is shown, it is not given here.

How the values were obtained:
[1] = molecular target: T1, human pituitary adenylate cyclase-activating polypeptide type I receptor (human, UniProt P41586 21-468); test: KinExA, CHOK1/huPac1 whole cells
T1 construct: whole, on cells; On SH-SY5Y or recombinant CHO cells (cAMP assay), as membranes of hPAC-1 AequoScreen CHO cells (radioligand assay) and on CHOK1/huPac1 whole cells (KinExA); also called human PAC1; hPAC1
T1 sequence (looked up): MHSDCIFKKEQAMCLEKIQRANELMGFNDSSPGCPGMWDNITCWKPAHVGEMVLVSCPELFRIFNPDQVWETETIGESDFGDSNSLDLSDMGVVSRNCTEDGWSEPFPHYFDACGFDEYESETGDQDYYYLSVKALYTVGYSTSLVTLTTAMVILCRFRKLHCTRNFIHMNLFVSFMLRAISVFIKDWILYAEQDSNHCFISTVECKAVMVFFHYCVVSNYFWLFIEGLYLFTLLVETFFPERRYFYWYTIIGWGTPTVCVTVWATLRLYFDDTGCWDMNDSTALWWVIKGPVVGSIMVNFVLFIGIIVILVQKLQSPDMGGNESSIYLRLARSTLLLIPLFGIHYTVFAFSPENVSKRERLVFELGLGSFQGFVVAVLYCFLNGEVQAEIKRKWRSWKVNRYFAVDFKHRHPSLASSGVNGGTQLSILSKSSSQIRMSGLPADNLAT
Procedure: Binding of anti-Pac1 antibody with CHOK1/huPac1 cells were tested on KinExA. […] Samples containing anti-Pac1 antibody and whole cells were incubated with rotation at room temperature for 4 hours before 5-minute 220-g centrifugation at 4° C. to separate the whole cells and anti-Pac1 antibody-cell complexes from unbound anti-Pac1 antibody. The supernatants containing free anti-Pac1 antibody were filtered through 0.22 μm filter before loading to the goat-anti-huFc-coated beads on KinExA. […] The binding signal is proportional to the concentration of free anti-Pac1 antibody in solution at each cell density. Equilibrium dissociation constant (KD) was estimated by n-curve analysis in KinExA™ Pro software (Sapidyne Instruments, Inc., Boise, Id.).

[2] = molecular target: T1, human pituitary adenylate …; test: radioligand competition, hPAC1 CHO membranes; competitor 125I-01B
Procedure: (§1) The plates were incubated at room temperature for 2 hours with shaking at 60 rpm, and then the contents of each well were filtered over 0.5% polyethyleneimine (PEI)-treated (for at least two hours) GF/C 96-well filter plates. The GF/C filter plates were washed five times with ice-cold 50 mM Tris, pH 7.5 and dried in an oven at 55° C. for 1 hour. The bottoms of the GF/C plates were then sealed. 40 μl Microscint™ 20 was added to each well, the tops of the GF/C plates were sealed with TopSeal™-A (a press-on adhesive sealing film), and the GF/C plates were counted with TopCount NXT (Packard). The data were analyzed using Prizm (GraphPad Software Inc.)

[3] = molecular target: T1, human pituitary adenylate …; test: radioligand competition, hPAC1 CHO membranes; competitor 125I-14A
Procedure: as §1

[4] = molecular target: T1, human pituitary adenylate …; test: radioligand competition, hPAC1 CHO membranes; competitor 125I-14B
Procedure: as §1

[5] = molecular target: T1, human pituitary adenylate …; test: radioligand competition, hPAC1 CHO membranes; competitor 125I-26A
Procedure: as §1

[6] = molecular target: T1, human pituitary adenylate …; test: radioligand competition, hPAC1 CHO membranes; competitor 125I-26B
Procedure: as §1

[7] = molecular target: T1, human pituitary adenylate …; test: radioligand competition, hPAC1 CHO membranes; competitor 125I-29B
Procedure: as §1

[8] = molecular target: T1, human pituitary adenylate …; test: radioligand competition, hPAC1 CHO membranes; competitor 125I-39A
Procedure: as §1

[9] = molecular target: T1, human pituitary adenylate …; test: radioligand competition, hPAC1 CHO membranes; competitor 125I-39B
Procedure: as §1

VPAC2 = molecular target: T2, VPAC2; test: cell-based or functional assay
T2 sequence (P41587 whole entry, species assumed, looked up): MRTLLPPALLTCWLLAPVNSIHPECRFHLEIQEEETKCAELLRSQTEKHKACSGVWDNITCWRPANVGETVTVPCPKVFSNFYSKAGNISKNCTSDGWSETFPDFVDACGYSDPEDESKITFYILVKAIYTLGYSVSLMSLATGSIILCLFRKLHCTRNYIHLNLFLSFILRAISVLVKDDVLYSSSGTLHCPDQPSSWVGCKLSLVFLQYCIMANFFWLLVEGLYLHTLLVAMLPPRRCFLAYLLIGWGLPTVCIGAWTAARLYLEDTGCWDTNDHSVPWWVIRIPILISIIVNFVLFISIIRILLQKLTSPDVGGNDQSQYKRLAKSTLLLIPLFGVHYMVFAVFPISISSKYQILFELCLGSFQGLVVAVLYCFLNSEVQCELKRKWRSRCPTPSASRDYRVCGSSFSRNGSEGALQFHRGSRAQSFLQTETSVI

[10] = molecular target: T1, human pituitary adenylate …; test: radioligand competition, hPAC1 CHO membranes; competitor 125I-28A
Procedure: as §1

[11] = molecular target: T1, human pituitary adenylate …; test: radioligand competition, hPAC1 CHO membranes; competitor 125I-29A
Procedure: as §1

cyno PAC1 = cyno PAC1 (cynomolgus); test: cell-based or functional assay
human VPAC1 = molecular target: T3, human VPAC1 (human, UniProt P32241 31-457); test: cell-based or functional assay
T3 sequence (looked up): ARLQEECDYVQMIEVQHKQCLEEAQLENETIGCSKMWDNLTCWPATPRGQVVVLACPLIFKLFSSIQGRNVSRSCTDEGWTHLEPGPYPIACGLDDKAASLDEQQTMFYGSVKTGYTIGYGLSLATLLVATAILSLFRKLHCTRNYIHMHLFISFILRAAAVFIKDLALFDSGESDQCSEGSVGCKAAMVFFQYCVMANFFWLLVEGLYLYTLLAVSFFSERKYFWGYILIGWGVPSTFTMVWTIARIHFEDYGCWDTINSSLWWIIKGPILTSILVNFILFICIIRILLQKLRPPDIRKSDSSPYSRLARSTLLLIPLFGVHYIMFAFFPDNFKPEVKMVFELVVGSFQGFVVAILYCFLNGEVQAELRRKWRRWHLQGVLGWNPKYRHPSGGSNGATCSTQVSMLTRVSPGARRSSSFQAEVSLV

human VPAC2 = molecular target: T4, human VPAC2 (human, UniProt P41587 24-438); test: cell-based or functional assay
T4 sequence (looked up): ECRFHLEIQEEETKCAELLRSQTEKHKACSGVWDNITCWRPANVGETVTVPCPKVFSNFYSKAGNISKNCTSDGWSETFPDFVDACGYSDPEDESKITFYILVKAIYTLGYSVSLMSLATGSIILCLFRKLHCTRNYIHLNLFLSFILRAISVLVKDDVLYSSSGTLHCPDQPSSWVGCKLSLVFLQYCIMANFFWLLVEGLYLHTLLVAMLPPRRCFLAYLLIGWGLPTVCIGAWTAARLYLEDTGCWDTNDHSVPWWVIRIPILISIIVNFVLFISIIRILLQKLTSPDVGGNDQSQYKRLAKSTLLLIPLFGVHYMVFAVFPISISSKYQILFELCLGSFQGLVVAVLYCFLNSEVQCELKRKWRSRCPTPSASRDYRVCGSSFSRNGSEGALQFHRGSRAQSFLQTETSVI

B1: 39A (antibody, human IgG2, kappa)
heavy: QVQLQESGPGLVKPSQTLSLTCTVSGGSISSGGYYWSWIRQHPGKGLEWIGYIYYSGNTYYNPSLKSRVTISGDTSKNQFSLKLRSVTAADTAVYYCTRGGAARGMDVWGQGTTVTVSSASTKGPSVFPLAPCSRSTSESTAALGCLVKDYFPEPVTVSWNSGALTSGVHTFPAVLQSSGLYSLSSVVTVPSSNFGTQTYTCNVDHKPSNTKVDKTVERKCCVECPPCPAPPVAGPSVFLFPPKPKDTLMISRTPEVTCVVVDVSHEDPEVQFNWYVDGVEVHNAKTKPREEQFNSTFRVVSVLTVVHQDWLNGKEYKCKVSNKGLPAPIEKTISKTKGQPREPQVYTLPPSREEMTKNQVSLTCLVKGFYPSDIAVEWESNGQPENNYKTTPPMLDSDGSFFLYSKLTVDKSRWQQGNVFSCSVMHEALHNHYTQKSLSLSPGK
light: not shown
notes: also called 39A lot1; 39A lot2
Kd [1]: 0.036 nM | Ki [2]: 0.3 nM and 0.15 nM | Ki [3]: 0.2 nM | Ki [4]: 0.24 nM and 0.43 nM | Ki [5]: 0.13 nM | Ki [6]: 0.17 nM and 0.14 nM | Ki [7]: 0.08 nM and 0.14 nM | Ki [8]: 0.16 nM | Ki [9]: 0.2 nM and 0.18 nM

B2: PACAP38 (ligand, UniProt P18509 132-169, looked up)
peptide: HSDGIFTDSYSRYRKQMAVKKYLAAVLGKRYKQRVKNK
modifications: ends and bridges not checked
VPAC2 EC50 (agonist activity) (VPAC2): 0.06 nM

B3: 38A (antibody, human IgG2, kappa, V domains shown)
VH: QVQLQESGPGLVKPSQTLSLTCTVSGGSISRGGYYWSWIRQHPGKGLEWIGYIYYSGNTYYNPSLKSRVIISGDTSKNQLSLKLRSVTAADTAVYYCARGGAARGMDVWGQGTTVTVSS
VL: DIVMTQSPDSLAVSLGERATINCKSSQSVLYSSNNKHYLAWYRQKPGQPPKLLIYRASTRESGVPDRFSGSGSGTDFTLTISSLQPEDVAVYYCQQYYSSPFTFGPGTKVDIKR
notes: also called LC-18 and HC-50
Kd [1]: 0.016 nM | Ki [3]: 0.07 nM | Ki [5]: 0.07 nM | Ki [8]: 0.11 nM

B4: 03A (antibody, human IgG2, kappa, V domains shown)
VH: QVQLVESGGGVVQPGRSLRLSCAASGFTFSYYAIHWVRQAPGKGLEWVAVISYDGSNKYYADSVKGRFTISRDNSKNTLYLQMNSLRAEDTAVYYCARGYDLLTGYPDYWGQGTLVTVSS
VL: DIQLTQSPSFLSASVGDRVTITCRASQSIGRSLHWYQQKPGKAPKLLIKYASQSLSGVPSRFSGSGSGTEFTLTISSLQPEDFATYYCHQSSRLPFTFGPGTKVDIKR
notes: also called LC-03 and HC-03
Kd [1]: 0.126 nM | Ki [10]: 0.01 nM | Ki [11]: 0.14 nM

B5: 28A (antibody, human IgG2, kappa, V domains shown)
VH: B4 VH with Y31R, I34M, P41S, Q82L, N84S, Y94F, L102I
VL: EIVLTQSPDFQSVTPKEKVTITCRASQSIGRSLHWYQQKPDQSPKLLFKYASQSLSGVPSRFSGSGSGTDFTLTINSLEAEDAATYYCHQSSRLPFTFGPGTKVDIKR
notes: also called LC-10 and HC-39
Ki [10]: < 0.01 nM | Ki [11]: 0.04 nM

B6: 05A (antibody, human IgG2, kappa, V domains shown)
VH: QVQLVESGGGVVQPGRSLRLSCAASGFTFSRFAMHWVRRAPGKGLEWVAVISYDGGNKYYAESVKGRFTISRDNSKNTLNLLMNSLRAEDTALFYCARGYDVLTGYPDYWGQGTLVTVSS
VL: B4 VL
notes: also called LC-05 and HC-06
Ki [10]: 0.02 nM | Ki [11]: 0.03 nM

B7: 29A (antibody, human IgG2, kappa)
heavy: QVQLVESGGGVVQPGRSLRLSCAASGFTFSRYAMHWVRQASGKGLEWVAVISYDGSNKYYADSVKGRFTISRDNSKNTLYLLMSSLRAEDTAVFYCARGYDILTGYPDYWGQGTLVTVSSASTKGPSVFPLAPCSRSTSESTAALGCLVKDYFPEPVTVSWNSGALTSGVHTFPAVLQSSGLYSLSSVVTVPSSNFGTQTYTCNVDHKPSNTKVDKTVERKCCVECPPCPAPPVAGPSVFLFPPKPKDTLMISRTPEVTCVVVDVSHEDPEVQFNWYVDGVEVHNAKTKPREEQFNSTFRVVSVLTVVHQDWLNGKEYKCKVSNKGLPAPIEKTISKTKGQPREPQVYTLPPSREEMTKNQVSLTCLVKGFYPSDIAVEWESNGQPENNYKTTPPMLDSDGSFFLYSKLTVDKSRWQQGNVFSCSVMHEALHNHYTQKSLSLSPGK
light: DIQLTQSPSFLSASVGDRVTITCRASQSIGRSLHWYQQKPGKAPKLLFKYASQSLSGVPSRFSGSGSGTEFTLTISSLQPEDFATYYCHQSSRLPFTFGPGTKVDIKRTVAAPSVFIFPPSDEQLKSGTASVVCLLNNFYPREAKVQWKVDNALQSGNSQESVTEQDSKDSTYSLSSTLTLSKADYEKHKVYACEVTHQGLSSPVTKSFNRGEC
notes: also called LC-11 and HC-39
Kd [1]: 0.013 nM | Ki [2]: 0.13 nM | Ki [3]: 0.07 nM | Ki [4]: 0.1 nM | Ki [5]: 0.03 nM | Ki [6]: 0.11 nM | Ki [11]: 0.04 nM | Ki [7]: 0.09 nM | Ki [8]: 0.06 nM | Ki [9]: 0.08 nM

B8: 26B (antibody, human IgG1, kappa, N297G)
heavy: not shown
light: B7 light with F48I
cyno PAC1 IC50 (cAMP assay) (cyno PAC1): 1.3 nM | hVPAC1 IC50 (cAMP assay) (human VPAC1): > 10 µM | hVPAC2 IC50 (cAMP assay) (human VPAC2): > 10 µM

B9: 14B (antibody, human IgG1, kappa, N297G)
heavy: not shown
light: EIVLTQSPATLSLSPGERATLSCRASQSVGRSLHWYQQKPGQAPRLLIKYASQSLSGIPARFSGSGSGTDFTLTISSLEPEDFAVYYCHQSSRLPFTFGPGTKVDIKRTVAAPSVFIFPPSDEQLKSGTASVVCLLNNFYPREAKVQWKVDNALQSGNSQESVTEQDSKDSTYSLSSTLTLSKADYEKHKVYACEVTHQGLSSPVTKSFNRGEC
cyno PAC1 IC50 (cAMP assay) (cyno PAC1): 0.6 nM | hVPAC1 IC50 (cAMP assay) (human VPAC1): > 10 µM | hVPAC2 IC50 (cAMP assay) (human VPAC2): > 10 µM
